Measurements published in patent publication US10130693B2, “Peptides, combination of peptides and scaffolds for use in immunotherapeutic treatment of various cancers” (Immatics Biotechnologies GmbH, priority 2015, dated 2018).

Molecular target: HLA-A*02:01 (Homo sapiens, UniProt P04439, D140Y/D185E/D98H/E176V/E277Q/G131W/G231S/I119V/I121R/I166T/I218V/L300P/L318F/N151K/N90K/P208A/P217A/Q86G/Q94H/R138H/R169H/T345S)
Test: MHC binding assay, UV-ligand exchange with beta2m ELISA (exchange yield), HLA-A*02
Settings: binding to HLA-A*02 ranged by peptide exchange yield
Excerpt: Candidate peptides for T cell based therapies according to the present invention were further tested for their MHC binding capacity (affinity). The individual peptide-MHC complexes were produced by UV-ligand exchange, where a UV-sensitive peptide is cleaved upon UV-irradiation, and exchanged with the peptide of interest as analyzed. Only peptide candidates that can effectively bind and stabilize the peptide-receptive MHC molecules prevent dissociation of the MHC complexes. To determine the yield of the exchange reaction, an ELISA was performed based on the detection of the light chain (β2m) of stabilized MHC complexes. The assay was performed as generally described in Rodenko et al. (Rodenko et al., 2006).
96 well MAXISorp plates (NUNC) were coated over night with 2 ug/ml streptavidin in PBS at room temperature, washed 4× and blocked for 1 h at 37° C. in 2% BSA containing blocking buffer. […] Peptide-MHC monomers of the UV-exchange reaction were diluted 100 fold in blocking buffer. Samples were incubated for 1 h at 37° C., washed four times, incubated with 2 ug/ml HRP conjugated anti-β2m for 1h at 37° C., washed again and detected with TMB solution that is stopped with […]. Absorption was measured at 450 nm. Candidate peptides that show a high exchange yield (preferably higher than 50%, most preferred higher than 75%) are generally preferred for a generation and production of antibodies or fragments thereof, and/or T cell receptors or fragments thereof, as they show sufficient avidity to the MHC molecules and prevent dissociation of the MHC complexes.

Substance | Peptide exchange (MHC class I binding score)
14 (LLDHLSFINKI; listed as Homo sapiens) [compound 14] | ++ (20%-49% = ++)
18 (YVLNEEDLQKV; listed as Homo sapiens) [compound 18] | +++ (50%-75% = +++)
48 (TLDHKPVTV; listed as Homo sapiens) [compound 48] | ++ (20%-49% = ++)
44 (GLLWQIIKV; listed as Homo sapiens) [compound 44] | ++ (20%-49% = ++)
55 (IASAIVNEL; listed as Homo sapiens) [compound 55] | ++ (20%-49% = ++)
10 (KTLDVFNIIL; listed as Homo sapiens) [compound 10] | ++ (20%-49% = ++)
31 (ALSDETKNNWEV; listed as Homo sapiens) [compound 31] | ++++ (>=75% = ++++)
29 (TLCNKTFTA; listed as Homo sapiens) [compound 29] | +++ (50%-75% = +++)
20 (ALDGHLYAI; listed as Homo sapiens) [compound 20] | +++ (50%-75% = +++)
46 (SLAKHGIVAL; listed as Homo sapiens) [compound 46] | +++ (50%-75% = +++)
54 (FINPKGNWLL; listed as Homo sapiens) [compound 54] | +++ (50%-75% = +++)
26 (KVDGVVIQL; listed as Homo sapiens) [compound 26] | +++ (50%-75% = +++)
35 (YVLPKLYVKL; listed as Homo sapiens) [compound 35] | ++ (20%-49% = ++)
6 (FLDPAQRDL; listed as Homo sapiens) [compound 6] | +++ (50%-75% = +++)
50 (EYALLYHTL; listed as Homo sapiens) [compound 50] | ++ (20%-49% = ++)
36 (KLYGIEIEV; listed as Homo sapiens) [compound 36] | ++++ (>=75% = ++++)
16 (HLYNNEEQV; listed as Homo sapiens) [compound 16] | ++ (20%-49% = ++)
11 (GVLKVFLENV; listed as Homo sapiens) [compound 11] | ++ (20%-49% = ++)
42 (VLSPFILTL; listed as Homo sapiens) [compound 42] | +++ (50%-75% = +++)
56 (KILDLTRVL; listed as Homo sapiens) [compound 56] | ++ (20%-49% = ++)
41 (FVLPLVVTL; listed as Homo sapiens) [compound 41] | +++ (50%-75% = +++)
47 (GLYQAQVNL; listed as Homo sapiens) [compound 47] | +++ (50%-75% = +++)
19 (TLLPTVLTL; listed as Homo sapiens) [compound 19] | +++ (50%-75% = +++)

Results, then the substance that gave them:

Peptide exchange (MHC class I binding score) | Substance
+++ (50%-75% = +++) | 89 (YLVAHNLLL; listed as Homo sapiens) [compound 89]
++ (20%-49% = ++) | 82 (VLLRVLIL; listed as Homo sapiens) [compound 82]
+ (<20% = +) | 90 (GAVAEEVLSSI; listed as Homo sapiens) [compound 90]
+++ (50%-75% = +++) | 88 (ILLNTEDLASL; listed as Homo sapiens) [compound 88]
+++ (50%-75% = +++) | 321 (SLWFKPEEL; listed as Homo sapiens) [compound 321]
++ (20%-49% = ++) | 67 (GVIETVTSL; listed as Homo sapiens) [compound 67]
+++ (50%-75% = +++) | 76 (ILLDESNFNHFL; listed as Homo sapiens) [compound 76]
+++ (50%-75% = +++) | 333 (GTFLEGVAK; listed as Homo sapiens) [compound 333]
+++ (50%-75% = +++) | 85 (STLDGSLHAV; listed as Homo sapiens) [compound 85]
+++ (50%-75% = +++) | 327 (SIGDIFLKY; listed as Homo sapiens) [compound 327]
+++ (50%-75% = +++) | 71 (GLITVDIAL; listed as Homo sapiens) [compound 71]
++ (20%-49% = ++) | 328 (SVDSAPAAV; listed as Homo sapiens) [compound 328]
+++ (50%-75% = +++) | 72 (GMIGFQVLL; listed as Homo sapiens) [compound 72]
+++ (50%-75% = +++) | 80 (TLDEYLTYL; listed as Homo sapiens) [compound 80]
++ (20%-49% = ++) | 339 (VLGPGPPPL; listed as Homo sapiens) [compound 339]
++ (20%-49% = ++) | 57 (VLISSTVRL; listed as Homo sapiens) [compound 57]
+++ (50%-75% = +++) | 69 (GIYDGILHSI; listed as Homo sapiens) [compound 69]

Peptide exchange (MHC class I binding score) | Substance
+++ (50%-75% = +++) | 84 (FLEEEITRV; listed as Homo sapiens) [compound 84]
++ (20%-49% = ++) | 64 (GLSSSSYEL; listed as Homo sapiens) [compound 64]
++ (20%-49% = ++) | 335 (VLLAAGPSAA; listed as Homo sapiens) [compound 335]
+++ (50%-75% = +++) | 66 (FITDFYTTV; listed as Homo sapiens) [compound 66]
+++ (50%-75% = +++) | 70 (GLFSQHFNL; listed as Homo sapiens) [compound 70]
++ (20%-49% = ++) | 61 (HLPDFVKQL; listed as Homo sapiens) [compound 61]
+ (<20% = +) | 63 (TLSSERDFAL; listed as Homo sapiens) [compound 63]
++++ (>=75% = ++++) | 324 (AIFDFCPSV; listed as Homo sapiens) [compound 324]
++ (20%-49% = ++) | 325 (RLLPKVQEV; listed as Homo sapiens) [compound 325]
+++ (50%-75% = +++) | 330 (FLWPKEVEL; listed as Homo sapiens) [compound 330]
++ (20%-49% = ++) | 58 (ALDDSLTSL; listed as Homo sapiens) [compound 58]
+ (<20% = +) | 91 (SSLEPQIQPV; listed as Homo sapiens) [compound 91]
++ (20%-49% = ++) | 92 (LLRGPPVARA; listed as Homo sapiens) [compound 92]
+++ (50%-75% = +++) | 87 (YLTEVFLHVV; listed as Homo sapiens) [compound 87]
+++ (50%-75% = +++) | 83 (ELLEYLPQL; listed as Homo sapiens) [compound 83]
++ (20%-49% = ++) | 81 (VLFLGKLLV; listed as Homo sapiens) [compound 81]
+++ (50%-75% = +++) | 59 (ALTKILAEL; listed as Homo sapiens) [compound 59]
